Experiment: yeast display, Sf9 membrane polyspecificity reagent, FACS + sequencing; frameworks hold sequencing errors
How it was run: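 In a synthetic yeast display library (Saccharomyces cerevisiae BJ5465), nanobody expression was induced with galactose for 36–48 hours. FACS gates were set low and high (top ~1%) using anti-HA fluorescence for expression and streptavidin fluorescence for binding of the Sf9 membrane reagent. Each polyreactivity label is drawn from the gate of origin.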

Sequence | polyreactivity (PSR sort gate)
QVQLVESGGGLVQAGGSLRLSCAASGRTFRRYAMGWYRQAPGKERELVAASSRGANTNYADSVKGRFTISRDNAKNTVYLQMNSLKPEDTSVYYGNAYGIDTGDYWGQGTKVTVSS | high polyreactivity
QVQLVESGGGLVQAGGSLRLSCAASGRTFRRYTMGWYRQAPGKERELVATISWSGGTTYADSVKGRFTISRDNAKNTVYLQMNSLKPEDTAVYFCAAVSYVYRYYWGQGTQVTVSS | low polyreactivity
QVQLVESGGGLVQAGGSLRLSCAASGRTFRRYVMGWDRQSPGKERQLVAAIRWTGGSTYYADSVKGRFTISRDNAKNTVYLKMNSLKPEDTEVYYCAAYIRWSGGFDYWGQGTQVTVSS | high polyreactivity
QVQLVESGGGLVQAGGSLRLSCAASGRTFRSNAMGGTTQAPGKERQLVAGITKSGGNTYYADSVKGRFTISRDNAKNTVYLQMTSLKPEDTAVYYCATRYYPLVNYLGYDYWGQGTQVTVSW | low polyreactivity
QVQLVESGGGLVQAGGSLRLSCAASGRTFRSNAMGWNIQAPGKERELVAAITRGRRTYYADSVKGRFTISRDNAKNTVYLQMNSMKPEDTAVYYCAGVGRYACRLDYWGQGTQVTVSS | high polyreactivity
QVQLVESGGGLVQAGGSLRLSCAASGRTFRSNAMGWYRQAPGKERELVAAIRNSDGSTNYADSVKGRFTISRDNAKNNVYLQMNSLKPEDTAVYYCAASSTVGGITRILYYYWGQGTQVTVSS | high polyreactivity
QVQLVESGGGLVQAGGSLRLSCAASGRTFRSNAMGWYRQAPGKERELVATISRRGVSTYYADSVKGRFTISRDNAKNTVYLQMNSLKPEDTAVYYCTLNVGTTSRWSYDYWGQGTQVTVSS | high polyreactivity
QVQLVESGGGLVQAGGSLRLSCAASGRTFRSYAMGWYRQAPGKERELVAAIRGGGGRTHYADSVKGRFTISRDNAKNTVYLQMNSLKPEDTAVYYCAAGRPYLESKLYDYWGQGTHVTVSS | high polyreactivity
QVQLVESGGGLVQAGGSLRLSCAASGRTFRSYAMGWYRQAPGKERELVAAISQRGGSTYYADSVKGRFTISRDNAKNTVYLQMNSLKPEDTAVYYCATPVRSGYDYWGQGTQVTVSS | high polyreactivity
QVQLVESGGGLVQAGGSLRLSCAASGRTFRSYAMGWYRQAPGKERELVAAISSGTSTDYADSVKGRFTISRDNAKNTVYLQMNSLKPEDTAVYYCAYDYWGQGTQVTVSS | low polyreactivity
QVQLVESGGGLVQAGGSLRLSCAASGRTFRSYAMGWYRQAPGKERELVAVISGGGTYYADSVKGRFTISRDNAKNTVYLQMNSLKPEDTAVYYCAAQFHFRPFSWTYDYWGQGTQVTVSS | high polyreactivity
QVQLVESGGGLVQAGGSLRLSCAASGRTFRSYDMGWYRQAPGKERELVAAISEDGGYTYYADSVKGRFTISRDNAKITVYLQMNSLKPEDTAVYYCAKDRPGPLRWWFLYGYWGQGTQGTVSS | low polyreactivity
QVQLVESGGGLVQAGGSLRLSCAASGRTFRSYTMGWYRQAPGKERELVARISSSGGRTYYADSVKGRFTISRDNAKNTVYLQMNSLKPEDTAVYYCAAAIVSYGRNDYWGQGTQVTVSS | high polyreactivity
QVQLVESGGGLVQAGGSLRLSCAASGRTFRTYDMGWYRQEPGKERELVAAITSRAGSTYYADSVKGRFTISRDNAKNTVFLQMNRLKPEDTAVYYCAKQYYYGWYWGEDYWGQGSQVTVSS | low polyreactivity
QVQLVESGGGLVQAGGSLRLSCAASGRTFRVYAMGGYRQAPGTERELVASISRRGAATYYADSVKGRFTISRDNAKNTVYRQMNSLKPEDTAVSDCAADRPYYSVSPNTEFEYWGQGTQVTVSS | high polyreactivity
QVQLVESGGGLVQAGGSLRLSCAASGRTFRVYAMGWYRQAPGKERELVAAITRGGSTYYADSVKGRFTISRDNAKNTVYLQMNSLKPEDTAVYYCATYSHALRYDYWGQGTQVTVSS | high polyreactivity
QVQLVESGGGLVQAGGSLRLSCAASGRTFRVYTMGWYRPAPGKERELVAVISGRGGSTSYADSVKGRFTISRDNAKNSVYVQINSLKPEDTAVYYCAALYTQSNSASMYYWGQGTQVTVSS | high polyreactivity
QVQLVESGGGLVQAGGSLRLSCAASGRTFRWNAMGLYRQAPGKERELVADITSGGSTYYADSVKGRFTISSDNAKNTVYLQMNSLKPEDTAVYYCKAYYYYQFPAPASKYDYWGQGTQVTVSS | high polyreactivity
QVQLVESGGGLVQAGGSLRLSCAASGRTFRWNAMGWYRQAPGKERELVAAITKSGGSTYYADSVKGRFTISRDNAKNTVYLQMNSLIPEDTAVYYCNAEPPLYPWAYPSDSYNFWGQGTQVTVSS | low polyreactivity
QVQLVESGGGLVQAGGSLRLSCAASGRTFRWYAMGWSRPAPGKERELVASISRGGSKSYADSVKGRFTISRDNAKNTVYLQMNSLKPEDTAVYYCNAKYRLEMDLGQGTQVTVSS | high polyreactivity
QVQLVESGGGLVQAGGSLRLSCAASGRTFRWYAMGWYRQAPGKERELVAAIRRSGGGTYYADSVKGRFTISRDNAKNTVYLQMNSLKPEDTAVYYCNTDYPVYQRGVISDGFDYWGQGTQVTVSS | low polyreactivity
QVQLVESGGGLVQAGGSLRLSCAASGRTFRWYPMGWYRQAPGKERELVAAINPGGSTNYADSVKGRFTISRDNANNTVDLQMNSLKPEDSAVYYCNAAGYDALTQNYYWGQGTQVTVSS | low polyreactivity
QVQLVESGGGLVQAGGSLRLSCAASGRTFRYAMGWYRQAPGKERELVAAITGSGGSTYYADSVKGRFTISRDNAKNTVYLQMNSLKPEDTAVYYCAAARYDYWGQGTQVTVSS | high polyreactivity
QVQLVESGGGLVQAGGSLRLSCAASGRTFRYKAMGWYRQAPGKERELVAAITWNGGRTYYADSVKGRFTISRDNAKNTVYLQMNSLKPEDTAVYYCAAQGTRVDRYPKYDYWGQGTQVTVSS | high polyreactivity
QVQLVESGGGLVQAGGSLRLSCAASGRTFRYNALGWYRQAPGKETELVAAISGRGSSTYYADSVKGRFTISRDNAKNTVYLQMNSLKPEDTAVYYCAALPASVRRPGWHDYWGQGTEVTVSS | high polyreactivity
QVQLVESGGGLVQAGGSLRLSCAASGRTFRYNAMGWYRQAPGKERELVAAITWSGGSTYYADSVKGRFTISRDNAKNTVYLQMNSLKPEDTAVYYCNKVTWHQGHDYWGQGTQVTVSS | low polyreactivity
QVQLVESGGGLVQAGGSLRLSCAASGRTFRYNAMGWYRQAPGKERELVASITSGGSTNYADSVKGRFTISRDNAKNTVYLQMNSLIPEDTAVYYCAADERRPYWQHSIGSGRPFDYWGQGTQVTVSS | low polyreactivity
QVQLVESGGGLVQAGGSLRLSCAASGRTFRYNAMGWYRQAPGKERELVATISSSGGSTSYADSVKGRFTISRDNAKNTVYLQMNSLKPEDTAVYYCAADEWGVRSEYDYWGQGTQVTVSS | low polyreactivity
QVQLVESGGGLVQAGGSLRLSCAASGRTFRYNTMGWYRQAPGKERELVAAITWSGGRTYYADSVKGRFTISRDNAKNTVYLQMNSLKPEDTAVYYCNADVPYSRSIYGFYYWGQGTQVTVSS | high polyreactivity
QVQLVESGGGLVQAGGSLRLSCAASGRTFRYNVMGWYRQAPGKERELVASISRISGSTYYADSVKGRFTISRDNAKNTVYLQMNSLKPEDTADYYARAAGEYDYWGQGTQVTVSS | high polyreactivity

Source: the nanobody polyreactivity screen of Harvey et al. (2022)
